{
  "source": "paper PMC10617567",
  "test_system": "AIM2 (recombinant AIM2FL)",
  "test": "EMSA",
  "settings": "3' biotin; EMSA: 0.1 uM biotinylated 149 bp dsDNA, protein up to 2.5 ug (twofold dilutions), 4 C, 30 min, 5% native PAGE in 45 mM Tris-borate/1 mM EDTA; pull-down: 1 ug …",
  "data": [
    {"substance": "149 bp HBV dsDNA", "values": [
      {"measurement": "Kd", "result": 1.38}
    ]}
  ]
}
